Data as given in patent US20150119341A1.
[ ]: non-standard residue; d: D form. Nle = CCCC[C@H](N)C(=O)O; Orn = NCCC[C@H](N)C(=O)O; Dab = NCC[C@H](N)C(=O)O; Sar = CNCC(=O)O

What was measured:
[1] = molecular target: recombinant human melanocortin-1 receptor (hMCR-1a) in membrane homogenates of HEK-293 cells (human) (UniProt Q01726); test: competitive inhibition of [I125]-NDP-alpha-MSH, hMCR-1 HEK-293 membranes
[2] = molecular target: recombinant human melanocortin-4 receptor (hMCR-4) in membrane homogenates of HEK-293 cells (human) (UniProt P32245); test: competitive inhibition of [I125]-NDP-alpha-MSH, hMCR-4 HEK-293 membranes
Chain of recombinant human melanocortin-4 receptor (hMCR-4) in membrane homogenates of HEK-293 cells (human) (P32245 whole entry): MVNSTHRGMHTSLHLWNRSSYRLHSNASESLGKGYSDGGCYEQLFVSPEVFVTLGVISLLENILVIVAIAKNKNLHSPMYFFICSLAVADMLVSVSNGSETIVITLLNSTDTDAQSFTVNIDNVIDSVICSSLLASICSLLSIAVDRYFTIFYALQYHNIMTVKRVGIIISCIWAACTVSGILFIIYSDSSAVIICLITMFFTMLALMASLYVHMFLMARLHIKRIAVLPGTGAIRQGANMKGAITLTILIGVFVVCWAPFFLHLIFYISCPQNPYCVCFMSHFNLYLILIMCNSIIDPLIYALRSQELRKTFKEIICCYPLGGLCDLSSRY

Chain of recombinant human melanocortin-1 receptor (hMCR-1a) in membrane homogenates of HEK-293 cells (human) (Q01726 whole entry): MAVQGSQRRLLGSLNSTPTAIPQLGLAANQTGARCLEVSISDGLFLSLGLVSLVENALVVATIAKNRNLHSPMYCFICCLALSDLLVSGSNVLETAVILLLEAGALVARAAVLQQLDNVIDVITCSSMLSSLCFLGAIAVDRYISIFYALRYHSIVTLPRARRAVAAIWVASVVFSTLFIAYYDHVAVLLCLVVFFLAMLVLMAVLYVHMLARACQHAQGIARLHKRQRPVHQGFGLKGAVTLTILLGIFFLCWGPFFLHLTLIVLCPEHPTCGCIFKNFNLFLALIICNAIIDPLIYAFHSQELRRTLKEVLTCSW

B1: Ac-Nle-Ala-His-D-Phe-Arg-D-Pro-Trp-NH2 (peptide)
peptide: Ac-[Nle]AH[dF]R[dP]W-NH2
SMILES: CCCC[C@H](NC(C)=O)C(=O)N[C@@H](C)C(=O)N[C@@H](Cc1c[nH]cn1)C(=O)N[C@H](Cc1ccccc1)C(=O)N[C@@H](CCCNC(=N)N)C(=O)N1CCC[C@@H]1C(=O)N[C@@H](Cc1c[nH]c2ccccc12)C(N)=O
B1 was tested, and the Ki [1] was 14 nM and the Ki [2] was 6200 nM.

B2: Ac-Nle-Ala-His-D-Phe-Arg-Ala-D-Trp-NH2 (peptide)
peptide: Ac-[Nle]AH[dF]RA[dW]-NH2
SMILES: CCCC[C@H](NC(C)=O)C(=O)N[C@@H](C)C(=O)N[C@@H](Cc1c[nH]cn1)C(=O)N[C@H](Cc1ccccc1)C(=O)N[C@@H](CCCNC(=N)N)C(=O)N[C@@H](C)C(=O)N[C@H](Cc1c[nH]c2ccccc12)C(N)=O
Work on B2 yielded a Ki [1] of 7 nM and a Ki [2] of 215 nM.

B3: Ac-Nle-Ala-Dab-D-Phe-Arg-Ala-Trp-NH2 (peptide)
peptide: Ac-[Nle]A[Dab][dF]RAW-NH2
SMILES: CCCC[C@H](NC(C)=O)C(=O)N[C@@H](C)C(=O)N[C@@H](CCN)C(=O)N[C@H](Cc1ccccc1)C(=O)N[C@@H](CCCNC(=N)N)C(=O)N[C@@H](C)C(=O)N[C@@H](Cc1c[nH]c2ccccc12)C(N)=O
Binder B3 has a Ki [1] of 2 nM and a Ki [2] of 7850 nM.

B4: Ac-Nle-Ala-His-D-Phe-Arg-Sar-Trp-NH2 (peptide)
peptide: Ac-[Nle]AH[dF]R[Sar]W-NH2
SMILES: CCCC[C@H](NC(C)=O)C(=O)N[C@@H](C)C(=O)N[C@@H](Cc1c[nH]cn1)C(=O)N[C@H](Cc1ccccc1)C(=O)N[C@@H](CCCNC(=N)N)C(=O)N(C)CC(=O)N[C@@H](Cc1c[nH]c2ccccc12)C(N)=O
Binder B4 has a Ki [1] of 2 nM and a Ki [2] of 870 nM.

B5: Ac-Nle-Ala-His-D-Phe-Arg-Pro-D-Trp-NH2 (peptide)
peptide: Ac-[Nle]AH[dF]RP[dW]-NH2
SMILES: CCCC[C@H](NC(C)=O)C(=O)N[C@@H](C)C(=O)N[C@@H](Cc1c[nH]cn1)C(=O)N[C@H](Cc1ccccc1)C(=O)N[C@@H](CCCNC(=N)N)C(=O)N1CCC[C@H]1C(=O)N[C@H](Cc1c[nH]c2ccccc12)C(N)=O
B5 gave a Ki [1] of 2 nM and a Ki [2] of 650 nM.

B6: Ac-Nle-Ala-Orn-D-Phe-Arg-Ala-Trp-NH2 (peptide)
peptide: Ac-[Nle]A[Orn][dF]RAW-NH2
SMILES: CCCC[C@H](NC(C)=O)C(=O)N[C@@H](C)C(=O)N[C@@H](CCCN)C(=O)N[C@H](Cc1ccccc1)C(=O)N[C@@H](CCCNC(=N)N)C(=O)N[C@@H](C)C(=O)N[C@@H](Cc1c[nH]c2ccccc12)C(N)=O
B6 gave a Ki [1] of 0.3 nM and a Ki [2] of 7580 nM.
